Measured values taken from patent publication US20230159663A1 (VIRTUOSO BINCO, published 2023).

How the values were obtained:
[1] = target: T1, human EpCAM extracellular domain with C-terminal His tag (Novoprotein #C339) (human, UniProt P16422 24-265); experiment: ELISA, plate coated with human EpCAM
T1 construct: extracellular domain; Bought protein
T1 sequence (looked up): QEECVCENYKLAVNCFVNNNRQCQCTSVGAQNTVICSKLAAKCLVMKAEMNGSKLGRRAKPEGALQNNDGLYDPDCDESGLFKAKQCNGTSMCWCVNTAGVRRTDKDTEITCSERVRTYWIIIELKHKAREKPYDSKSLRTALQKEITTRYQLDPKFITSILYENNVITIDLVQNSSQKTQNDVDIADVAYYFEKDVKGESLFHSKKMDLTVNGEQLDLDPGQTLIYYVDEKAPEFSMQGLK

[2] = target: T2, human CD47 extracellular domain with C-terminal 6×His tag (human, UniProt Q08722 19-139, limits assumed); experiment: ELISA, plate coated with recombinant huCD47
T2 construct: extracellular domain; Made in Expi293F cells (section 5.4.1); also called recombinant CD47; huCD47

[3] = target: T3, human EpCAM on cells (CHO-K1 cells transfected with human EpCAM; EpCAM+ tumour cell lines) (human, UniProt P16422 24-314); experiment: flow cytometry on MCF-7, Caco-2 and A431 cells
T3 construct: whole, on cells; also called CHO-K1-huEpCAM cells; cell-surface EpCAM
T3 sequence (looked up): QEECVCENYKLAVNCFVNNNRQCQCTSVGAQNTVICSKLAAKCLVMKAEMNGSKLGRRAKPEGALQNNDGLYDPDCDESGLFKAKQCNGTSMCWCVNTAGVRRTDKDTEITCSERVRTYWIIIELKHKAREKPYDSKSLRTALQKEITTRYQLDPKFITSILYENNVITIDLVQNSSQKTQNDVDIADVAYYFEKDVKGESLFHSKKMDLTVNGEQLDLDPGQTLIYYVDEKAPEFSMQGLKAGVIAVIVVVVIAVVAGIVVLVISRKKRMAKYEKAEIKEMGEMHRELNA

[4] = target: T2, human CD47 extracellular domain with …; experiment: ELISA on human CD47; EC50 given as a bin, limits from the table's legend; lower limit of bin B
[5] = target: T2, human CD47 extracellular domain with …; experiment: ELISA on human CD47; EC50 given as a bin, limits from the table's legend; upper limit of bin B
[6] = target: T4, CD47 expressed on human red blood cells (human, UniProt Q08722 19-323); experiment: flow cytometry on human red blood cells
T4 construct: whole, on cells; also called RBCs; RBC

[7] = target: T1, human EpCAM extracellular domain with …; experiment: ELISA on human EpCAM
[8] = target: T3, human EpCAM on cells (CHO-K1 cells …); experiment: flow cytometry on CHO-K1 cells transfected with human EpCAM

B1: Bi-1 (3C-KIH EpCAM × CD47 scFv bispecific antibody) (bispecific antibody, human IgG1)
chain: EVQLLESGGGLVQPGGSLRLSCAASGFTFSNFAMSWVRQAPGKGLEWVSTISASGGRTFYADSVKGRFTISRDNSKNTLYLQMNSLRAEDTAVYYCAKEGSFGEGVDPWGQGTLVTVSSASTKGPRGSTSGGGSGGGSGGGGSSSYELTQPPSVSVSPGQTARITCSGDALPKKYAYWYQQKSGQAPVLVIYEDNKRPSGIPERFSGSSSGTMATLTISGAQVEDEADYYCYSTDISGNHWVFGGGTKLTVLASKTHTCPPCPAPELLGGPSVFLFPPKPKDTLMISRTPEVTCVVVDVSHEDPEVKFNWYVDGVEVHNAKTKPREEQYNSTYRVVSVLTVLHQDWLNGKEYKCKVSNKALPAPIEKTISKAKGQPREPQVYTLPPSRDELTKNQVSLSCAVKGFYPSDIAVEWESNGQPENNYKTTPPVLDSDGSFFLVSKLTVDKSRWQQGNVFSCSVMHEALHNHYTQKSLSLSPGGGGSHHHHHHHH
heavy: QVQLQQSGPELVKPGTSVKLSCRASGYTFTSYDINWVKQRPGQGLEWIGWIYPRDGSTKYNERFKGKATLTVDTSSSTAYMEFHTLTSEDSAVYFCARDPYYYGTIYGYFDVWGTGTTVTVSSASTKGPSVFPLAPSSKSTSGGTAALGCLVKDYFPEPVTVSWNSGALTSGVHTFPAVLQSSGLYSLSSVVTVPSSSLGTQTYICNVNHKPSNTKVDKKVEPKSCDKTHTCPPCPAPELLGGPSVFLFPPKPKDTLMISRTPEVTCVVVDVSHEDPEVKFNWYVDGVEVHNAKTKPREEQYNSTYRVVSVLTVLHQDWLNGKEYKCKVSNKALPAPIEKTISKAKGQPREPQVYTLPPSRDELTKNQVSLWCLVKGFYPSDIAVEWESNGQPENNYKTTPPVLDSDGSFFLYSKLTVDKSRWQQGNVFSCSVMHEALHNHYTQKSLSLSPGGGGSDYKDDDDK
VL: DIQMTQSPSSLSASLGERVSLTCRASQDIGNSLNWLQQKPDGTIKRLIYVTSRLDSGVPKRFSGSRSGSDYFFTISSLESEDFADYYCLQYASSPFTFGSGTKLEIK
notes: Three-chain knob-into-hole format
B1: binds [1]; binds [2].

B2: mAb-1 (chimeric anti-EpCAM antibody) (antibody, V domains shown)
VH: QVQLQQSGPELVKPGTSVKLSCRASGYTFTSYDINWVKQRPGQGLEWIGWIYPRDGSTKYNERFKGKATLTVDTSSSTAYMEFHTLTSEDSAVYFCARDPYYYGTIYGYFDVWGTGTTVTVSS
VL: DIQMTQSPSSLSASLGERVSLTCRASQDIGNSLNWLQQKPDGTIKRLIYVTSRLDSGVPKRFSGSRSGSDYFFTISSLESEDFADYYCLQYASSPFTFGSGTKLEIK
notes: also called EpCAM Mab1
In the case of B2, the EC50 [3] is reported as < 20 nM, the “EC50 (read off the curve)” value [1] is reported as ~0.1 nM and the binding result [2] is reported as “no binding (tested: 100 nM)”.

B3: VIR47 IgG1 HC G99A (antibody, V domains shown)
VH: EVQLLESGGGLVQPGGSLRLSCAASGFTFSNFAMSWVRQAPGKGLEWVSTISASGGRTFYADSVKGRITISRDNSKNTLFLQMNGLRAEDTAVYYCAKEGSFAEGVDPWGQGTLVTVSS
VL: SYEMTQPPSVSVSPGQTARITCSGDALPKKYAYWYQQKSGQAPVLVIYEDNKRPSGIPERFSGSSSGTMATLTISGAQVEDEADYYCYSTDISGNHWVFGGGTELTVLG
notes: Alanine-scan variant of the IgG1 form of VIR47; position in Kabat-style numbering, not the linear count on the entry
For B3, the EC50 [4] was ≥ 0.15 nM and the EC50 [5] was ≤ 0.4 nM.

B4: VIR47 IgG1 HC G100aA (antibody, V domains shown)
VH: EVQLLESGGGLVQPGGSLRLSCAASGFTFSNFAMSWVRQAPGKGLEWVSTISASGGRTFYADSVKGRITISRDNSKNTLFLQMNGLRAEDTAVYYCAKEGSFGEAVDPWGQGTLVTVSS
VL: SYEMTQPPSVSVSPGQTARITCSGDALPKKYAYWYQQKSGQAPVLVIYEDNKRPSGIPERFSGSSSGTMATLTISGAQVEDEADYYCYSTDISGNHWVFGGGTELTVLG
notes: as for B3
For B4, the EC50 [4] was ≥ 0.15 nM and the EC50 [5] was ≤ 0.4 nM.

B5: VIR47 hIgG4-SPL (antibody)
heavy: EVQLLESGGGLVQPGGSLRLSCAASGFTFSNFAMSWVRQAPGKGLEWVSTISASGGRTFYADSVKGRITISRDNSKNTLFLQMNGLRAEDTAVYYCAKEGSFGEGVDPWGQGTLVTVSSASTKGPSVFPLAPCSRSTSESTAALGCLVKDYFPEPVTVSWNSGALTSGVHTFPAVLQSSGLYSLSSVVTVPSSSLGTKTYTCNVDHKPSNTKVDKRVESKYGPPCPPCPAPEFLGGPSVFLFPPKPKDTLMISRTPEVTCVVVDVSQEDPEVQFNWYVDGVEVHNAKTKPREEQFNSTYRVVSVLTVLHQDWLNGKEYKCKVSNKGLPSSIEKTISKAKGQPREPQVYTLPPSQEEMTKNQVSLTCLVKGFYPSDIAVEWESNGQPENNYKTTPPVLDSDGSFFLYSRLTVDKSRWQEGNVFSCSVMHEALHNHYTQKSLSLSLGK
light: SYEMTQPPSVSVSPGQTARITCSGDALPKKYAYWYQQKSGQAPVLVIYEDNKRPSGIPERFSGSSSGTMATLTISGAQVEDEADYYCYSTDISGNHWVFGGGTELTVLGQPKAAPSVTLFPPSSEELQANKATLVCLISDFYPGAVTVAWKADSSPVKAGVETTTPSKQSNNKYAASSYLSLTPEQWKSHRSYSCQVTHEGSTVEKTVAPTECS
notes: Anti-CD47 from OmniRat rats on a human IgG4 framework with S228P; also called VIR47 mAb; IgG4 form
B5 was tested, and the “fold higher concentration required for RBC binding, against CD47 BMK-1” value [6] was > 20 fold.

B6: VIR47.V7 hIgG1 (antibody, V domains shown)
VH: EVQLLESGGGLVQPGGSLRLSCAASGFTFSNFAMSWVRQAPGKGLEWVSTISASGGRTFYADSVKGRITISRDNSKNTLYLQMNSLRAEDTAVYYCAKEGSFGEGVDPWGQGTLVTVSS
VL: SYEMTQPPSVSVSPGQTARITCSGDALPKKYAYWYQQKSGQAPVLVIYEDNKRPSGIPERFSGSSSGTMATLTISGAQVEDEADYYCYSTDISGNHWVFGGGTKLTVLG
notes: HC: F79Y, G82bS; LC: E103K (Kabat) against VIR47; already contained in the entries
With B6 the “fold higher concentration required for RBC binding, against CD47 BMK-1” value [6] was > 20 fold.

B7: mAb-4 (chimeric anti-EpCAM antibody) (antibody, V domains shown)
VH: QVQLQQPGAELVRPGTSVKLSCKASGYTFTSYWMHWIKQRPGQGLEWIGVIDPSNSYSNYNQKFKGRATLTVDTYSSTAYMQLSSLTSEDSAVYYCARPYNHGRDAMDYWGQGTSVTVSS
VL: DVLLTQTPLSLSVSLGDQASISCRSSQSFVHINGNTYLEWFLQKPGLSPKLLIYKVSNRFSGVPDRFSGSGSGTDFTLKISRVEAEDLGIYYCFQGSHVPLTFGAGTKLELK
B7: binds [7].

B8: mAb-28 (chimeric anti-EpCAM antibody) (antibody, V domains shown)
VH: QVQLQQSGAELARPGASVKVSCKASGYTFTSYGISWVKQRTGQGLEWIGEIYPTRDYTYYNENFKGKATLTADKSSTTAYMELRSLTSEDSAVYFCARDGPPFAYWGQGTLVTVSA
VL: DIVMTQAAFSNPVTLGTSASISCRSSKSLLHSNGFTYLHWYLQKPGQSPQLLIYQMSSLASGVPDRFSSSGSGTDFTLRISRVEAEDVGVYYCAQNLELPRTFGGGTKLEIK
B8: binds [7]; binds [8].

B9: mAb-30 (chimeric anti-EpCAM antibody) (antibody, V domains shown)
VH: EVQLQQSGPELVKPGASVKISCKASGYTFTDYYMSWVKQSHGRSLEWIGEINPDNGDTSHNQKFKGKATMTVDKSSGTGNMEIRSLTSEDAGIYYCTSYFSYWGQGTLVTVSA
VL: DVLMTQSPLSLPVSLGDQASISCRSSQSIVDSDGSTYLEWYLQKPGQSPKLLIYKVSNRFSGVPDRFSGSGSGTDFTLKISGVEAEDLGVYYCFQGSHVPYTFGGGTKLEIK
B9: binds [7]; binds [8].

B10: mAb-33 (chimeric anti-EpCAM antibody) (antibody, V domains shown)
VH: EVLLQQSVADLVRPGASVKLSCTASGLNIKNTYIHWVKQMPEQGLEWIGRIGPANGNTKYAPKFQGKATITADTSSDTAYLQLSSLTSEDTAIYYCALAYYRIYWGQGTTLTVSS
VL: DIVLTQSPASLAVSLGQRATISCRASESVDNSGISFMHWYQQKPGQSPKLLIYRASNLESGIPARFSGSGSRTDFTLTINPVETDDVATYYCQQSYENPWTFGGGTKLEIK
B10: binds [7]; binds [8].

B11: mAb-35 (chimeric anti-EpCAM antibody) (antibody, V domains shown)
VH: EVQLQQSVAELVRPGASVKLSCTASGFNIKNTYMHWVKQRPEQGLEWIGRIAPANGNTKYAPKFQDKATITANTSSNTAYLQLGSLTSEDTAIYYCAFIYQLPYWGQGTTLTVSS
VL: DIVLTQSPASLAVSLGQRATISCRASESVDNYGISFMHWFQQKPGQPPKLLIFRASSLESGIPARFSGSGSRTDFTLTINPVETDDVATYYCQQSYKDPWTFGGATKLEIK
B11: binds [7]; binds [8].

B12: mAb-37 (chimeric anti-EpCAM antibody) (antibody, V domains shown)
VH: EVQLQQSVAELVRPGASVKLSCTASGFNIKNTYMHWVKQRPEQGLEWIGRIAPANGNTKYDPKFQDKATITADSSSNTAYLHLSSLTSEDTAIYYCAFIYQLPYWGQGSTLTVSS
VL: DIVLTQSPTSLAVSLGQRATISCRASESVDNYGISFMHWYQQKPGQPPKLLIYRASSLESGIPARFSGSGSRTDFTLTINPVESDDVATYYCQQSYKDPWTFGGATKLEIK
B12: binds [7].

B13: mAb-36 (chimeric anti-EpCAM antibody) (antibody, V domains shown)
VH: QVQVQQSGPELVKPGTSVKISCKTSGYTFTDYYITWVKQRPGQGLEWIGWIFPGRGISFYNENFKDKATLTVDKSSNTAFMLLSSLTSEDSAVYFCARWGGTWFAYWGQGTLITVSA
VL: EIVLTQSPAITAAFLGQKVTITCSASSSVSYIHWYQQKSDTSPKPWIYEISKLASGVPARFSGSGSGTSYSLTISSMEAEDAAIYYCQQWNYPLITFGGGTKLEIK
B13: binds [7]; binds [8].

B14: mAb-39 (chimeric anti-EpCAM antibody) (antibody, V domains shown)
VH: QIQLVQSGPELKKPGETVKISCKASGYTFTSYGVTWVKQAPGKGLKWMGWINTYSGVPTYADDFKGRFAFSLETSASTAYLQINNLKNEDTATYFCARSHSNYDFWGQGTTLTVSS
VL: DIVMTQSQKFMSTTVGDRVSITCQASQNVGTDVGWYQQKPGQSPKLLIYSASNRYTGVPDRFTGSGSGTDFTLTISNMQSEDLADYFCQQYSSYPRTFGGGTKLEIK
B14: binds [7]; binds [8].

B15: mAb-2 (chimeric anti-EpCAM antibody) (antibody, V domains shown)
VH: EVQLVESGGGLVQPKGSLKLSCAASGFTFNTYAMHWVRQAPGKGLEWVARIRSKTYNYATFYADSVKDRFTISRDDSQSMLYLQMNNLKTEDTAMFYCVTGSSYAMDYWGQGTSVTVSS
VL: DILLTQSPAILSVSPGERVSFSCRASQSIGTSLHWYQQRTNGSPRLLIKYASESISGIPSRFSGSGSGTDFTLSINSVESEDIADYYCQQSNSWPYTFGGGTKLEIK
notes: also called EpCAM Mab2
With B15 the EC50 [3] was < 20 nM.

B16: mAb-8 (chimeric anti-EpCAM antibody) (antibody, V domains shown)
VH: QVQLQQSGAELARPGASVQLSCKASGYTFTSYGISWLKQRAGQGLEWIGEIYPRSDNTYYNEKFKGKATLTADKSSSTAYMELRSLTSEDSAVYFCARRAGMWFAYWGQGTLVTVSA
VL: EIVLTQSPAITAASLGQKVTITCSASSSVSDMHWYQQKSGTSPKPWIYEISKLASGVPTRFSGSGSGTSYSLTISSMEAEDAAIYYCQHWSYPLMTFGGGTKLEIK
notes: also called EpCAM Mab8
With B16 the EC50 [3] was < 20 nM.

B17: mAb-21 (chimeric anti-EpCAM antibody) (antibody, V domains shown)
VH: DVQLQESGPGLVKPSQSLSLTCTVTGYSITSDFAWNWIRQFPGNKLEWVGYITYSGTTSYNPSLKSRISITRDTSKNQFFLQLSSVTTEDTATYYCARSFHFFAYGFAYWGQGTLVTVSA
VL: not shown
B17 was tested, and the EC50 [3] was < 20 nM.
